Results as given in doi:10.1101/2021.05.28.446204.
pKd: −log10 of the molar value.

Assays:
Test in all cases: fluorescence polarisation
[1] = target: TAMRA-labeled CoV-2 nsp1 C-K R124A/K125A (SARS-CoV-2) (UniProt P0DTD1)
[2] = target: TAMRA-labeled CoV-2 nsp1 C-K R99A (SARS-CoV-2) (UniProt P0DTD1)
[3] = target: TAMRA-labeled CoV-2 nsp1 C-K, wild type (SARS-CoV-2) (UniProt P0DTD1)

Substance: purified ribosomes (crude 80S from HeLa cell lysate) (from UniProt P15880;P23396;P62847;P63244) (complex)
- fold increase in Kd against WT nsp1 [1]: 2 fold
- fold increase in Kd against WT nsp1 [2]: 1.6 fold
- pKd [3]: 6.27
